Measured values taken from PMC3246216 (2012).
Substitutions are numbered along the chain they refer to. Blank lines part the entries; values can stand above or below the binder they belong to.

Assays:
Test in all cases: ITC
[1] = target: T1, Gcn4 101-134 (Saccharomyces cerevisiae, UniProt P03069)
T1 chain: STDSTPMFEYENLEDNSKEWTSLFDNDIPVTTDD

[2] = target: T2, Gcn4 101-134 (Saccharomyces cerevisiae, UniProt P03069)
T2 chain: T1 chain with F24A

[3] = target: T3, Gcn4 101-134 (Saccharomyces cerevisiae, UniProt P03069)
T3 chain: T1 chain with W20A

Kd [1]: 10.1 µM
Kd [2]: 65 µM
Kd [3]: 56 µM
B1: Gal11/Med15 158-238 (protein)
chain: QRRQLTPQQQQLVNQMKVAPIPKQLLQRIPNIPPNINTWQQVTALAQQKLLTPQDMEAAKEVYKIHQQLLFKARLQQQQAQ

Kd [1]: 76 µM
B2: Gal11/Med15 158-238 (protein)
chain: B1 chain with M56A
